Assay results reported in paper PMC5148612, “Mechanism of cargo-directed Atg8 conjugation during selective autophagy” (eLife, 2016).
Substitutions are numbered along the chain they refer to.

T1: Atg12~Atg5 (N84E) conjugate (S. cerevisiae, UniProt P38316 1-186; Q12380 1-294, N84E, conjugated to Atg5 | conjugated to Atg12)
T1 construct: Atg12, S. cerevisiae; Atg5, S. cerevisiae; source: E. coli Rosetta pLysS, purified
T1 sequence (looked up) 1: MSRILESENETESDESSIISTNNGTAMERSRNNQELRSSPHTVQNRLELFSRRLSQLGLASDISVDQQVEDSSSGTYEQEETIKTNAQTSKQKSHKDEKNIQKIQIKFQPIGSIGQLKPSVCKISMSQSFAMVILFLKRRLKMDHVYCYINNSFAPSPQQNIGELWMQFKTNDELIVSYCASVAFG
T1 sequence (looked up) 2: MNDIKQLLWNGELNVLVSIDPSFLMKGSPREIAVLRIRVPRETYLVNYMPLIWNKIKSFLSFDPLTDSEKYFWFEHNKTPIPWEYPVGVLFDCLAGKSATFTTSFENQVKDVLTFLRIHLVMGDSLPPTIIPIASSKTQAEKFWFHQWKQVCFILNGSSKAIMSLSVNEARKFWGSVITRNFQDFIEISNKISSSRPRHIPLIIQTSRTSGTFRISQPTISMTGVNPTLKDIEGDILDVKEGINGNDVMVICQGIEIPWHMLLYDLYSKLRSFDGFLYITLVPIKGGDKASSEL

T2: Atg12~Atg5 conjugate (S. cerevisiae, UniProt P38316 1-186; Q12380 1-294, conjugated to Atg5 (Atg12~Atg5 protein conjugate) | conjugated to Atg12)
T2 construct: Atg12, S. cerevisiae; Atg5, S. cerevisiae; the two chains are covalently joined; source: E. coli Rosetta pLysS, co-expression of 6xHis-Atg5, Atg12, Atg7 and Atg10, purified
T2 sequence (looked up) 1: T1 sequence (looked up) 1
T2 sequence (looked up) 2: T1 sequence (looked up) 2 with E84N

T3: Atg12~Atg5 (K57E,N84E) conjugate (S. cerevisiae, UniProt P38316 1-186; Q12380 1-294, K57E | N84E, conjugated to Atg5 | conjugated to Atg12)
T3 construct: Atg12, S. cerevisiae; Atg5, S. cerevisiae; source: E. coli Rosetta pLysS, purified
T3 sequence (looked up) 1: T1 sequence (looked up) 1
T3 sequence (looked up) 2: T1 sequence (looked up) 2 with K57E

T4: Atg12~Atg5 (K57E) conjugate (S. cerevisiae, UniProt P38316 1-186; Q12380 1-294, K57E, conjugated to Atg5 | conjugated to Atg12)
T4 construct: Atg12, S. cerevisiae; Atg5, S. cerevisiae; source: E. coli Rosetta pLysS, purified
T4 sequence (looked up) 1: T1 sequence (looked up) 1
T4 sequence (looked up) 2: T1 sequence (looked up) 2 with K57E, E84N

T5: Atg19 (S. cerevisiae, UniProt P35193 1-415)
T5 construct: Atg19, S. cerevisiae; printed without a tag; also called Atg19 wild type
T5 sequence (looked up): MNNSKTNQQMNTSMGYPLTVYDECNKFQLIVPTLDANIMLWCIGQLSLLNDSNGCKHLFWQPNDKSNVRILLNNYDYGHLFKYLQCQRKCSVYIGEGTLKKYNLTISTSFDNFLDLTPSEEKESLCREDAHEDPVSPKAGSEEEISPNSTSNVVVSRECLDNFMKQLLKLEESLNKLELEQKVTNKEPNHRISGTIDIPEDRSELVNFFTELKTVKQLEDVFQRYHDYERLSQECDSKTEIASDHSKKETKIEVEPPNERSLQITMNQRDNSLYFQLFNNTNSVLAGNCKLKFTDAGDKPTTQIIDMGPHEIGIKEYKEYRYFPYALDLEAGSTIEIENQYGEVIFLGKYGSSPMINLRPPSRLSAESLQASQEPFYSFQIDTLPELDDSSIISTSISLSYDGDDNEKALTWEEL

T6: mCherry-Atg19 (S. cerevisiae, UniProt P35193 1-415)
T6 construct: Atg19, S. cerevisiae; also called 6xHis-mCherry-Atg19; source: E. coli Rosetta pLysS, purified via a hexahistidine tag; not shown: mCherry, N-terminal, kept
T6 sequence (looked up): T5 sequence (looked up)

T7: Atg12~Atg5-Atg16-mCherry complex (S. cerevisiae, UniProt P38316 1-186; Q12380 1-294; Q03818 1-150, conjugated to Atg5 (Atg12~Atg5 protein conjugate) | conjugated to Atg12)
T7 construct: Atg12, S. cerevisiae; Atg5, S. cerevisiae; Atg16, S. cerevisiae; also called Cx; source: E. coli Rosetta pLysS; Atg12~Atg5 conjugate mixed 1:1 with purified Atg16-mCherry, purified by size exclusion chromatography; not shown: His6, N-terminal, cleaved; mCherry, C-terminal, kept; copies: + +
T7 sequence (looked up) 1: T1 sequence (looked up) 1
T7 sequence (looked up) 2: T1 sequence (looked up) 2 with E84N
T7 sequence (looked up) 3: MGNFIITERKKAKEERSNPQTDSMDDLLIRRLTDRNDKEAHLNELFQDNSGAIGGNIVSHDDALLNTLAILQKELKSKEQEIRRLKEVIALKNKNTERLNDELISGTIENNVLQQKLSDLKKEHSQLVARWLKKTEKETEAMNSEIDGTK

T8: Atg12~Atg5-Atg16-meGFP complex (S. cerevisiae, UniProt P38316 1-186; Q12380 1-294; Q03818 1-150, conjugated to Atg5 (Atg12~Atg5 protein conjugate) | conjugated to Atg12)
T8 construct: Atg12, S. cerevisiae; Atg5, S. cerevisiae; Atg16, S. cerevisiae; called -eGFP in one legend and -meGFP in the methods; also called Atg12~Atg5-Atg16-eGFP; source: E. coli Rosetta pLysS, purified; not shown: meGFP, C-terminal, kept; copies: + +
T8 sequence (looked up) 1: T1 sequence (looked up) 1
T8 sequence (looked up) 2: T1 sequence (looked up) 2 with E84N
T8 sequence (looked up) 3: T7 sequence (looked up) 3

B1: Atg16-mCherry (natural protein, S. cerevisiae, UniProt Q03818 1-150, looked up)
chain: T7 sequence (looked up) 3
notes: Atg16, S. cerevisiae; also called 6xHis-Atg16-mCherry; source: E. coli Rosetta pLysS, purified (Ni-NTA, TEV, Superdex 200); not shown: His6, N-terminal, cleaved; mCherry, C-terminal, kept
B2: GST-prApe1(1–45) (domain or fragment, S. cerevisiae, UniProt P14904 1-45, looked up)
chain: MEEQREILEQLKKTLQMLTVEPSKNNQIANEEKEKKENENSWCIL
notes: prApe1 (precursor aminopeptidase 1), S. cerevisiae, propeptide; also called prApe1 propeptide; cargo mimetic beads; source: E. coli Rosetta pLysS, purified; not shown: GST, N-terminal, kept
B3: GST-prApe1(1–41) + Atg19 (complex, S. cerevisiae)
chain 1: MEEQREILEQLKKTLQMLTVEPSKNNQIANEEKEKKENENS
chain 2: T5 sequence (looked up)
notes: prApe1, S. cerevisiae, propeptide; Atg19, S. cerevisiae; formed beforehand on the beads; Atg19 as m17; also called cargo mimetic beads; source: purified proteins from E. coli, assembled on glutathione Sepharose beads and washed; not shown: GST, N-terminal, kept
B4: GST-prApe1(1–45) + Atg19 (complex, S. cerevisiae)
chain 1: B2 chain
chain 2: T5 sequence (looked up)
notes: prApe1, S. cerevisiae, propeptide; Atg19, S. cerevisiae; formed beforehand on the beads; Atg19 as m17; source: purified proteins from E. coli, assembled on glutathione Sepharose beads and washed; not shown: GST, N-terminal, kept
B5: GFP-Atg8∆R117 (natural protein, S. cerevisiae, UniProt P38182 1-116, looked up)
chain: MKSTFKSEYPFEKRKAESERIADRFKNRIPVICEKAEKSDIPEIDKRKYLVPADLTVGQFVYVIRKRIMLPPEKAIFIFVNDTLPPTAALMSAIYQEHKDKDGFLYVTYSGENTFG
notes: Atg8, S. cerevisiae, without its last residue R117; also called meGFP-Atg8∆R117; 6xHis-meGFP-Atg8∆R117; source: E. coli Rosetta pLysS, purified; not shown: meGFP, N-terminal, kept
B6: GST-prApe1(1–41) (domain or fragment, S. cerevisiae, UniProt P14904 1-41, looked up)
chain: B3 chain 1
notes: prApe1, S. cerevisiae, propeptide; also called prApe1 propeptide; source: E. coli Rosetta pLysS, purified as a GST fusion protein; not shown: GST, N-terminal, kept

How the values were obtained:
Conditions in all cases: both partners purified
[1] = target: T1, Atg12~Atg5 (N84E) conjugate; assay: SEC; separately purified proteins mixed in a molar ratio 1:1 for 30 min at 4°C or on ice; the resulting complex purified on Superdex S200 16/60
Atg12~Atg5 conjugate = target: T2, Atg12~Atg5 conjugate; assay: as above
[2] = target: T3, Atg12~Atg5 (K57E,N84E) conjugate; assay: as above
[3] = target: T4, Atg12~Atg5 (K57E) conjugate; assay: as above
Atg19 [4] = target: T5, Atg19; assay: microscopy-based recruitment to cargo mimetic beads; beads with GST-prApe1(1–45) 25 µM, Atg19 15 µM, Atg12~Atg5-Atg16-mCherry 12.5 µM, washed after each step, with ATTO390-containing SUVs (Figure 6, Figure 6—figure supplement 2)
mCherry-Atg19 = target: T6, mCherry-Atg19; assay: microscopy-based protein-protein interaction assay on beads; beads with GST-prApe1(1–45) at 5 µM, washed, Atg19 (wild type, mutant or mCherry-Atg19) 5 µM, washed, Atg12~Atg5-Atg16-meGFP 5 µM (Figure 3—figure supplement 2, Figure 6—figure supplement 1)
[5] = target: T7, Atg12~Atg5-Atg16-mCherry complex; assay: microscopy-based competition assay on beads; beads with GST-prApe1 propeptide (10 µM) and Atg19 (20 µM), Atg12~Atg5-Atg16-mCherry 5 µM; then GFP-Atg8 5 µM (1x) and 50 µM (10x) (Figure 3G)
[6] = target: T7, Atg12~Atg5-Atg16-mCherry complex; assay: microscopy-based recruitment to cargo mimetic beads; beads with GST-prApe1(1–45) 25 µM, Atg19 15 µM, Atg12~Atg5-Atg16-mCherry 12.5 µM, washed after each step, with ATTO390-containing SUVs (Figure 6, Figure 6—figure supplement 2)
[7] = target: T8, Atg12~Atg5-Atg16-meGFP complex; assay: microscopy-based protein-protein interaction assay on beads; beads with GST-prApe1(1–45) at 5 µM, washed, Atg19 (wild type, mutant or mCherry-Atg19) 5 µM, washed, Atg12~Atg5-Atg16-meGFP 5 µM (Figure 3—figure supplement 2, Figure 6—figure supplement 1)
GST-prApe1(1–41) + Atg19 = target: B3; assay: microscopy-based competition assay on beads; beads with GST-prApe1 propeptide (10 µM) and Atg19 (20 µM), Atg12~Atg5-Atg16-mCherry 5 µM; then GFP-Atg8 5 µM (1x) and 50 µM (10x) (Figure 3G)
Atg19 [8] = target: T5, Atg19; assay: microscopy-based protein-protein interaction assay on beads; beads with GST-prApe1(1–41) at 25 µM, washed, Atg19 15 µM, washed, Atg12~Atg5-Atg16-mCherry (wild type and mutants) 8.8 µM (Figure 5B, C)

Does B1 bind [1]?
Result: binds

Does B1 bind (Atg12~Atg5 conjugate)?
Result: binds

Does B1 bind [2]?
Result: binds

Does B1 bind [3]?
Result: binds

Does B2 bind (Atg19 [4])?
Result: binds

Does B2 bind (mCherry-Atg19)?
Result: binds

Does B3 bind [5]?
Result: binds

Does B4 bind [6]?
Result: binds

Does B4 bind [7]?
Result: binds

Does B5 bind (GST-prApe1(1–41) + Atg19)?
Result: binds

Does B6 bind (Atg19 [8])?
Result: binds
